# Experimental data reported in PMC3206016, “Putting into Practice Domain-Linear Motif Interaction Predictions for Exploration of Protein Networks” (PLoS ONE, 2011).
# Ends that are not written are not given here. * marks the point of attachment. Biotin = O=C1N[C@H]2[C@H](CS[C@H]2CCCCC(=O)*)N1
# B1: PTEN_05 (short peptide of PTEN: GSGAG and the last five residues) (peptide)
# peptide: Biotin-GSGAGQITKV
# notes: also called PTEN short; source: synthetic peptide (JPT Peptide Technologies)
# B2: PTEN_10 (long peptide of PTEN: the last ten residues) (peptide)
# peptide: Biotin-EDQHTQITKV
# notes: also called PTEN long; source: synthetic peptide (JPT Peptide Technologies)
# B3: TANC1_05 (short peptide of Tetratricopeptide repeat, ankyrin repeat and coiled-coil domain-containing protein 1: GSGAG and the last five residues) (peptide)
# peptide: Biotin-GSGAGIESNV
# notes: also called TANC1 short; source: synthetic peptide (JPT Peptide Technologies)
# B4: SCRIB-3/4 (MBP fusion of the third of the four PDZ domains of SCRIB) (domain or fragment)
# chain: EGPYPVEEIRLPRAGGPLGLSIVGGSDHSSHPFGVQEPGVFISKVLPRGLAARSGLRVGDRILAVNGQDVRDATHQEAVSALLRPCLELSLLVRRDP
# notes: also called MBP-PDZ analyte SCRIB-3/4; source: E. coli BL21 DE3, purified (amylose column, Superdex 75 gel filtration)
# B5: SCRIB-34/4 (MBP fusion of the tandem of the third and fourth PDZ domains of SCRIB) (domain or fragment)
# chain: EGPYPVEEIRLPRAGGPLGLSIVGGSDHSSHPFGVQEPGVFISKVLPRGLAARSGLRVGDRILAVNGQDVRDATHQEAVSALLRPCLELSLLVRRDPAPPGLRELCIQKAPGERLGISIRGGARGHAGNPRDPTDEGIFISKVSPTGAAGRDGRLRVGLRLLEVNQQSLLGLTHGEAVQLLRSVGDTLTVLVCDGFE
# notes: also called MBP-PDZ analyte SCRIB-34/4; tandem PDZ construct; source: E. coli BL21 DE3, purified (amylose column, Superdex 75 gel filtration)
# B6: SCRIB-4/4 (MBP fusion of the fourth of the four PDZ domains of SCRIB) (domain or fragment)
# chain: GLRELCIQKAPGERLGISIRGGARGHAGNPRDPTDEGIFISKVSPTGAAGRDGRLRVGLRLLEVNQQSLLGLTHGEAVQLLRSVGDTLTVLVCDGFE
# notes: also called MBP-PDZ analyte SCRIB-4/4; source: E. coli BL21 DE3, purified (amylose column, Superdex 75 gel filtration)
# B7: MAGI1-2/6 (MBP fusion of the second of the six PDZ domains of MAGI1) (domain or fragment)
# chain: KPFFTRNPSELKGKFIHTKLRKSSRGFGFTVVGGDEPDEFLQIKSLVLDGPAALDGKMETGDVIVSVNDTCVLGHTHAQVVKIFQSIPIGASVDLELCRGYPLPFDPDDPNTSLVTSVAILDKEP
# notes: source: E. coli BL21 DE3, purified (amylose column, Superdex 75 gel filtration)
# B8: MAGI1-3/6 (MBP fusion of the third of the six PDZ domains of MAGI1) (domain or fragment)
# chain: SHGYPNDTVSLASSIATQPELITVHIVKGPMGFGFTIADSPGGGGQRVKQIVDSPRCRGLKEGDLIVEVNKKNVQALTHNQVVDMLIECPKGSEVTLLVQRGGLPVPKKSPKSQPLERKDSQNSSQHSVSSHRSLHTASP
# notes: as for B7
# B9: GLUT7_05 (short peptide of Solute carrier family 2, facilitated glucose transporter member 7: GSGAG and the last five residues) (peptide)
# peptide: Biotin-GSGAGKETSF
# notes: also called GLUT7 short; source: synthetic peptide (JPT Peptide Technologies)
# B10: GLUT7_10 (long peptide of Solute carrier family 2, facilitated glucose transporter member 7: the last ten residues) (peptide)
# peptide: Biotin-TASPAKETSF
# notes: also called GLUT7 long; source: synthetic peptide (JPT Peptide Technologies)
# B11: TMEM215_10 (long peptide of Transmembrane protein 215: the last ten residues) (peptide)
# peptide: Biotin-QGRWDHETIV
# notes: also called TMEM215 long; source: synthetic peptide (JPT Peptide Technologies)
# B12: MAS_05 (short peptide of Proto-oncogene Mas: GSGAG and the last five residues) (peptide)
# peptide: Biotin-GSGAGVETVV
# notes: also called MAS short; source: synthetic peptide (JPT Peptide Technologies)
# B13: MARCH3_10 (long peptide of E3 ubiquitin-protein ligase MARCH3: the last ten residues) (peptide)
# peptide: Biotin-VKRNSKETVV
# notes: also called MARCH3 long; source: synthetic peptide (JPT Peptide Technologies)
# B14: TMEM215_05 (short peptide of Transmembrane protein 215: GSGAG and the last five residues) (peptide)
# peptide: Biotin-GSGAGHETIV
# notes: also called TMEM215 short; source: synthetic peptide (JPT Peptide Technologies)
# B15: MARCH3_05 (short peptide of E3 ubiquitin-protein ligase MARCH3: GSGAG and the last five residues) (peptide)
# peptide: Biotin-GSGAGKETVV
# notes: also called MARCH3 short; source: synthetic peptide (JPT Peptide Technologies)
# B16: FZD4_05 (short peptide of Frizzled-4: GSGAG and the last five residues) (peptide)
# peptide: Biotin-GSGAGSETVV
# notes: also called FZD4 short; source: synthetic peptide (JPT Peptide Technologies)
# B17: VANG2_10 (long peptide of Vang-like protein 2: the last ten residues) (peptide)
# peptide: Biotin-VMRLQSETSV
# notes: also called VANG2 long; source: synthetic peptide (JPT Peptide Technologies)
# B18: VANG2_05 (short peptide of Vang-like protein 2: GSGAG and the last five residues) (peptide)
# peptide: Biotin-GSGAGSETSV
# notes: also called VANG2 short; source: synthetic peptide (JPT Peptide Technologies)
# B19: ADAM17_10 (long peptide of Disintegrin and metalloproteinase domain-containing protein 17: the last ten residues) (peptide)
# peptide: Biotin-NRVDSKETEC
# notes: also called ADAM17 long; source: synthetic peptide (JPT Peptide Technologies)
# B20: TTC24_05 (short peptide of Tetratricopeptide repeat protein 24: GSGAG and the last five residues) (peptide)
# peptide: Biotin-GSGAGICTIV
# notes: also called TTC24 short; source: synthetic peptide (JPT Peptide Technologies)
# B21: MAS_10 (long peptide of Proto-oncogene Mas: the last ten residues) (peptide)
# peptide: Biotin-CNTVTVETVV
# notes: also called MAS long; source: synthetic peptide (JPT Peptide Technologies)
# B22: CYSLTR2_05 (short peptide of Cysteinyl leukotriene receptor 2: GSGAG and the last five residues) (peptide)
# peptide: Biotin-GSGAGKETRV
# notes: also called CYSLTR2 short; source: synthetic peptide (JPT Peptide Technologies)
# B23: FZD4_10 (long peptide of Frizzled-4: the last ten residues) (peptide)
# peptide: Biotin-KPGKGSETVV
# notes: also called FZD4 long; source: synthetic peptide (JPT Peptide Technologies)
# B24: CYSLTR2_10 (long peptide of Cysteinyl leukotriene receptor 2: the last ten residues) (peptide)
# peptide: Biotin-SVWLRKETRV
# notes: also called CYSLTR2 long; source: synthetic peptide (JPT Peptide Technologies)
# B25: GLAST_05 (short peptide of Excitatory amino acid transporter 1: GSGAG and the last five residues) (peptide)
# peptide: Biotin-GSGAGSETKM
# notes: also called GLAST short; source: synthetic peptide (JPT Peptide Technologies)
# B26: ATP1A1_10 (long peptide of Sodium/potassium-transporting ATPase subunit alpha-1: the last ten residues) (peptide)
# peptide: Biotin-GGWVEKETYY
# notes: also called ATP1A1 long; source: synthetic peptide (JPT Peptide Technologies)
# B27: ATP1A1_05 (short peptide of Sodium/potassium-transporting ATPase subunit alpha-1: GSGAG and the last five residues) (peptide)
# peptide: Biotin-GSGAGKETYY
# notes: also called ATP1A1 short; source: synthetic peptide (JPT Peptide Technologies)
# B28: DLL1_05 (short peptide of Delta-like protein 1: GSGAG and the last five residues) (peptide)
# peptide: Biotin-GSGAGIATEV
# notes: also called DLL1 short; source: synthetic peptide (JPT Peptide Technologies)
# B29: DLL1_10 (long peptide of Delta-like protein 1: the last ten residues) (peptide)
# peptide: Biotin-KDECVIATEV
# notes: also called DLL1 long; source: synthetic peptide (JPT Peptide Technologies)
# B30: ARHGAP6_10 (long peptide of Rho GTPase-activating protein 6: the last ten residues) (peptide)
# peptide: Biotin-NPDALPETLV
# notes: also called ARHGAP6 long; source: synthetic peptide (JPT Peptide Technologies)
# B31: ABC1_05 (short peptide of ATP-binding cassette sub-family A member 1: GSGAG and the last five residues) (peptide)
# peptide: Biotin-GSGAGKESYV
# notes: also called ABC1 short; source: synthetic peptide (JPT Peptide Technologies)
# B32: ARHGAP6_05 (short peptide of Rho GTPase-activating protein 6: GSGAG and the last five residues) (peptide)
# peptide: Biotin-GSGAGPETLV
# notes: also called ARHGAP6 short; source: synthetic peptide (JPT Peptide Technologies)
# B33: NET1_05 (short peptide of Neuroepithelial cell-transforming gene 1 protein: GSGAG and the last five residues) (peptide)
# peptide: Biotin-GSGAGKETLV
# notes: also called NET1 short; source: synthetic peptide (JPT Peptide Technologies)
# B34: ABC1_10 (long peptide of ATP-binding cassette sub-family A member 1: the last ten residues) (peptide)
# peptide: Biotin-QDEKVKESYV
# notes: also called ABC1 long; source: synthetic peptide (JPT Peptide Technologies)
# B35: NET1_10 (long peptide of Neuroepithelial cell-transforming gene 1 protein: the last ten residues) (peptide)
# peptide: Biotin-SGGKRKETLV
# notes: also called NET1 long; source: synthetic peptide (JPT Peptide Technologies)
# Biological target: B8
# Test: SPR
# Conditions: both partners purified
row,Binder,Kd
1,B1,453 µM
2,B2,144 µM
3,B3,14 µM

# Biological target: T1, TAX1_05 (short peptide of the Trans-activating transcriptional regulatory protein of HTLV-1: GSGAG a (HTLV-1A, biotin at N-terminus))
# T1 construct: source: synthetic peptide (JPT Peptide Technologies)
# Test: SPR
# Conditions: both partners purified
row,Binder,Kd
1,B4,96 µM
2,B5,1 µM
3,B6,50 µM
4,B7,33 µM
5,B8,75 µM

# Biological target: B5
# Test: SPR
# Conditions: both partners purified
row,Binder,Kd
1,B9,5 µM
2,B3,9 µM
3,B10,5 µM

# Biological target: B4
# Test: SPR
# Conditions: both partners purified
row,Binder,Kd
1,B9,56 µM
2,B3,498 µM
3,B10,45 µM

# Biological target: B8
# Test: SPR
# Conditions: both partners purified
# Remark: another data set of the same source
row,Binder,Kd
1,B11,67 µM
2,B12,90 µM
3,B13,686 µM
4,B14,116 µM

# Biological target: B7
# Test: SPR
# Conditions: both partners purified
row,Binder,Kd
1,B15,225 µM
2,B16,146 µM
3,B12,2740 µM
4,B13,103 µM

# Biological target: B5
# Test: SPR
# Conditions: both partners purified
# Remark: another data set of the same source
row,Binder,Kd
1,B17,5 µM
2,B11,9 µM
3,B15,7 µM
4,B18,4 µM
5,B12,16 µM
6,B13,16 µM
7,B14,15 µM

# Biological target: B4
# Test: SPR
# Conditions: both partners purified
# Remark: another data set of the same source
row,Binder,Kd
1,B19,97 µM
2,B17,12 µM
3,B11,128 µM
4,B15,46 µM
5,B18,24 µM
6,B12,158 µM
7,B13,100 µM
8,B14,213 µM

# Biological target: B8
# Test: SPR
# Conditions: both partners purified
# Remark: another data set of the same source
row,Binder,Kd
1,B20,34 µM
2,B21,123 µM
3,B22,21 µM

# Biological target: B7
# Test: SPR
# Conditions: both partners purified
# Remark: another data set of the same source
row,Binder,Kd
1,B23,23 µM
2,B20,65 µM
3,B22,30 µM
4,B24,4 µM

# Biological target: B5
# Test: SPR
# Conditions: both partners purified
# Remark: another data set of the same source
row,Binder,Kd
1,B19,8 µM
2,B20,25 µM
3,B25,179 µM
4,B21,3 µM
5,B22,10 µM
6,B24,15 µM

# Biological target: B4
# Test: SPR
# Conditions: both partners purified
# Remark: another data set of the same source
row,Binder,Kd
1,B19,79 µM
2,B20,239 µM
3,B26,88 µM
4,B25,182 µM
5,B21,73 µM
6,B22,103 µM
7,B27,1280 µM
8,B24,34 µM

# Biological target: B8
# Test: SPR
# Conditions: both partners purified
# Remark: another data set of the same source
row,Binder,Kd
1,B28,246 µM
2,B29,238 µM
3,B30,41 µM
4,B31,26 µM
5,B32,58 µM
6,B33,23 µM
7,B34,20 µM
8,B35,37 µM

# Biological target: T2, 16E6_05 (short peptide of HPV16 early protein E6: GSGAG and the last five residues) (human papilloma virus 16, biotin at N-terminus)
# T2 construct: also called 16E6 short; source: synthetic peptide (JPT Peptide Technologies)
# Test: SPR
# Conditions: both partners purified
row,Binder,Kd
1,B4,12 µM
2,B5,1 µM
3,B7,7 µM

# Biological target: B7
# Test: SPR
# Conditions: both partners purified
# Remark: another data set of the same source
row,Binder,Kd
1,B28,32 µM
2,B30,18 µM
3,B31,91 µM
4,B32,2000 µM
5,B33,62 µM
6,B34,45 µM
7,B35,3 µM

# Biological target: B5
# Test: SPR
# Conditions: both partners purified
# Remark: another data set of the same source
row,Binder,Kd
1,B30,28 µM
2,B31,10 µM
3,B32,31 µM
4,B33,15 µM
5,B34,8 µM
6,B35,63 µM

# Biological target: B4
# Test: SPR
# Conditions: both partners purified
# Remark: another data set of the same source
row,Binder,Kd
1,B28,200 µM
2,B29,172 µM
3,B30,541 µM
4,B31,229 µM
5,B32,216 µM
6,B33,308 µM
7,B34,107 µM
8,B35,217 µM
